Data as given in patent publication US20220056149A1 (LUMOSA THERAPEUTICS, published 2022).

Key:
[1] = molecular target: T1, Human VEGFR2-Fc (Sino Biological) (human, UniProt P35968 20-764); test: antigen binding activity, summary table; assay not named on the sheet
T1 construct: Bought; not shown: Fc part of a bought fusion protein

[2] = molecular target: T1, Human VEGFR2-Fc (Sino Biological); test: ELISA, plate coated with human VEGFR2-Fc 1ug/ml, anti-His-HRP detection
[3] = molecular target: T2, human CEACAM5-Fc (novoprotein) (human, UniProt P06731 35-685, limits assumed); test: antigen binding activity, summary table; assay not named on the sheet
T2 construct: Bought; not shown: Fc part of a bought fusion protein
T2 sequence (looked up): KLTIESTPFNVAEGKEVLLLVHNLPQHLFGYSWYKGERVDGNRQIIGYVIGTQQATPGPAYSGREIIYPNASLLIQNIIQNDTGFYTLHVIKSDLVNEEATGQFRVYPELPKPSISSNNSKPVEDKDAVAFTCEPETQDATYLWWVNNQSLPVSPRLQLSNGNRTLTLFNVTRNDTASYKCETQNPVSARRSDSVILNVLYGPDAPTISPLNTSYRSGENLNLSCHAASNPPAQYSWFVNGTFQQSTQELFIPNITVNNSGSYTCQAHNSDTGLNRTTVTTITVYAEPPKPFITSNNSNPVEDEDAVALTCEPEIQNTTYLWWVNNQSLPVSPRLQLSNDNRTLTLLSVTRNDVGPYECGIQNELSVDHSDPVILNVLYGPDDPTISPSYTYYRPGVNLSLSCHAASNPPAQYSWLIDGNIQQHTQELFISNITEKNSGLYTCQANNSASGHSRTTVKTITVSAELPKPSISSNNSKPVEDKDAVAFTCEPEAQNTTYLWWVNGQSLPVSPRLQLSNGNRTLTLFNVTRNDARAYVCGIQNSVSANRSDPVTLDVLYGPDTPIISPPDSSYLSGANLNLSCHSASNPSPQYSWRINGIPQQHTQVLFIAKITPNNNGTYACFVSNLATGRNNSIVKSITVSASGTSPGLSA

[4] = molecular target: T3, hEGFR-Fc (Sino Biological) (human, UniProt P00533 25-645); test: as above
T3 construct: Bought; also called human EGFR; humans EGFR-Fc protein; not shown: Fc part of a bought fusion protein

[5] = molecular target: T3, hEGFR-Fc (Sino Biological); test: ELISA, plate coated with human EGFR-Fc, anti-His-HRP detection
[6] = molecular target: T4, human ErbB2/Her2-Fc (Acro biosystem) (human, UniProt P04626 23-652); test: ELISA, plate coated with human ErbB2/Her2-Fc
T4 construct: Bought; also called human HER2; not shown: Fc part of a bought fusion protein

[7] = molecular target: T5, human ErbB3/Her3-Fc (Acro biosystem) (human, UniProt P21860 20-643); test: ELISA, plate coated with human ErbB3/Her3-Fc
T5 construct: Bought; also called human HER3; not shown: Fc part of a bought fusion protein

T1 sequence (P35968 20-764 limits assumed): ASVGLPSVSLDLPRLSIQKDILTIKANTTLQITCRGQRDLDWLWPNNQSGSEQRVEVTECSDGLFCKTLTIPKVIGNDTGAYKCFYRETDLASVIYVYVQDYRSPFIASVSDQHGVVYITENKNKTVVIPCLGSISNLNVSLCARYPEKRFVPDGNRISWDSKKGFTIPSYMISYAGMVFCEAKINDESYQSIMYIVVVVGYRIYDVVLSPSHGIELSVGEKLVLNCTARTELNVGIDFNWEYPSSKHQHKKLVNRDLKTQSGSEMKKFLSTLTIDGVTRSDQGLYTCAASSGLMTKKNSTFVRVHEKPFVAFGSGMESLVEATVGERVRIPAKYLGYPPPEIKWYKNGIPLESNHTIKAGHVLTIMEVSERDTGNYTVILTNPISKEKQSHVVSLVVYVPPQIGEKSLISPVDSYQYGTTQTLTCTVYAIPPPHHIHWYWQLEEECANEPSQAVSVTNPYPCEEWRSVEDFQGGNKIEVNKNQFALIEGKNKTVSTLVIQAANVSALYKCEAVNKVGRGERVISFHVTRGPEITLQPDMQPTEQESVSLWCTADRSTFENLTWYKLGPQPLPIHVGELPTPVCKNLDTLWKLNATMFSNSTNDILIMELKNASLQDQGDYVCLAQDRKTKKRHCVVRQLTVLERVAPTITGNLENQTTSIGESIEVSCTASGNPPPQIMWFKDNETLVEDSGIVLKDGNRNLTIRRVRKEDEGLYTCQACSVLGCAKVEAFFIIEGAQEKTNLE

B1: 3VGR19-CD-H (VHH)
VHH: QVQLQESGGGSVQAGGSLRLSCVASGYSVSKNSMGWFRQAPGKEREGVAGINEGGTATYYANSVKGRFTISQDNAKNTVYLQMNTLKPEDTAIYYCAAGSPDPPPLIESVVKYWGQGTQVTVSS
notes: sdAb-cytosine deaminase fusion with C-terminal His-tag, made in E. coli; Built from parts; An N-terminal Met may precede the sdAb
- binding result [1]: binds

B2: 4VGR17-CD-H (VHH)
VHH: QVQLQESGGGSVQAGGSLRLSCVASGYSVSKNSMGWFRQAPGKEREGVAGINYGGTATYYANSVKGRFTISQDNAKNTVYLQMNTLKPEDTAIYYCAAGSPDPPPLIEGVVKYWGQGTQVTVSS
notes: sdAb-cytosine deaminase fusion with C-terminal His-tag; Built from parts
- EC50 (read off the curve) [2]: ~20 ng/mL

B3: NbCEA5-CDoem3-H (VHH)
VHH: QVQLVESGGGSVQAGGSLRLSCAASGDTYGSYWMGWFRQAPGKEREGVAAINRGGGYTVYADSVKGRFTISRDTAKNTVYLQMNSLRPDDTADYYCAASGVLGGLHEDWFNYWGQGTQVTVSS
notes: as for B2
- binding result [3]: binds

B4: GE10-CD-H (other)
antigen binding fragment-CD fusion: MLHLWVPEPWTQTGGGGSGGGGSGGGGSVTGGMASKWDQKGMDIAYEEAALGYKEGGVPIGGCLINNKDGSVLGRGHNMRFQKGSATLHGEISTLENCGRLEGKVYKDTTLYTTLSPCDMCTGAIIMYGIPRCVVGENVNFKSKGEKYLQTRGHEVVVVDDERCKKIMKQFIDERPQDWFEDIGEGSSHHHHHH
- binding result [4]: binds

B5: GE11-CD-H (other)
antigen binding fragment-CD fusion: MYHWYGYTPQNVIGGGGSGGGGSGGGGSVTGGMASKWDQKGMDIAYEEAALGYKEGGVPIGGCLINNKDGSVLGRGHNMRFQKGSATLHGEISTLENCGRLEGKVYKDTTLYTTLSPCDMCTGAIIMYGIPRCVVGENVNFKSKGEKYLQTRGHEVVVVDDERCKKIMKQFIDERPQDWFEDIGEGSSHHHHHH
- binding result [4]: no binding

B6: Inherbin3-CD-H (other)
antigen binding fragment-CD fusion: MLVYNKLTFQLEPNPHTKGGGGSGGGGSGGGGSVTGGMASKWDQKGMDIAYEEAALGYKEGGVPIGGCLINNKDGSVLGRGHNMRFQKGSATLHGEISTLENCGRLEGKVYKDTTLYTTLSPCDMCTGAIIMYGIPRCVVGENVNFKSKGEKYLQTRGHEVVVVDDERCKKIMKQFIDERPQDWFEDIGEGSSHHHHHH
- binding result [4]: binds

B7: Inherbin1-CD-H (other)
antigen binding fragment-CD fusion: MMLYNPTTYQMDVNPEGKGGGGSGGGGSGGGGSVTGGMASKWDQKGMDIAYEEAALGYKEGGVPIGGCLINNKDGSVLGRGHNMRFQKGSATLHGEISTLENCGRLEGKVYKDTTLYTTLSPCDMCTGAIIMYGIPRCVVGENVNFKSKGEKYLQTRGHEVVVVDDERCKKIMKQFIDERPQDWFEDIGEGSSHHHHHH
- binding result [4]: no binding

B8: 3VGR10-CD-H (VHH)
VHH: QVQLQESGGGSVQAGGSLRLSCVASGYSVSKNSMGWFRQAPGKEREGVAGINEGGTATYYANSVKGRFTISQDNARNTVYLQMNTLKPEDTAIYYCAAGSPDPPPLIESVVKYWGQGTQVTVSS
- binding result [1]: binds

B9: 4VGR38-CD-H (VHH)
VHH: QVQLQESGGGSVQAGGSLTLSCEVSGYSVNSNSMGWFRQAPGKEREGVAGINEGGVSTYYANFVQGRFTISQDNAKNMVYLQMNSLKPEDTAIYYCAAGAPDPPPLIESIVKYWGQGTQVTVSS
notes: as for B2
- binding result [2]: binds

B10: VHH122-CD-H (VHH)
VHH: EVQLQESGGGLVQAGDSLRLSCLVSGRSFNSYTMGWFRQAPGKEREFVAAILWSGPTTYYADSVKGRFTISRDNAKNTVYLQMNSLKPEDTAVYYCAAALGVLVLAPGNVYSYWGQGTQVTVSS
notes: as for B2
- EC50 (read off the curve) [5]: ~0.8 nM

B11: 2D3-CDoem3-H (VHH)
VHH: EVQLVESGGSLVQPGGSLRLSCAASGFTFDDYAMSWVRQVPGKGLEWVSSINWSGTHTDYADSVKGRFTISRNNANNTLYLQMNSLKSEDTAVYYCAKNWRDAGTTWFEKSGSAGQGTQVTVSS
notes: as for B2
- EC50 (read off the curve) [6]: ~0.1 nM

B12: 3VGR17-CD-H (VHH)
VHH: QVQLQESGGGSVQAGGSLRLSCAASGYTYCSYDMGWYRQAPGKEREFVSAIDNYGRTGYADSVKGRFTISQDNAKNTSYLQMNSLKPEDTAIYYCKVDVCPDPSRPGRPGYWGQGTQVTVSS
- binding result [1]: binds

B13: 47D5-CDoem3-H (VHH)
VHH: KVQLVESGGGLVQPGGSLRLSCAASGSIFGFNDMAWYRQAPGKQRELVALISRVGVTSSADSVKGRFTISRVNAKDTVYLQMNSLKPEDTAVYYCYMDQRLDGSTLAYWGQGTQVTVSS
notes: as for B2
- EC50 (read off the curve) [6]: ~0.2 nM

B14: BCD090-M2-CDoem3-H (VHH)
VHH: QVQLVQSGGGLVQAGGSLRLSCAFSGRTFSMYTMGWFRQAPGKEREFVAANRGRGLSPDIADSVNGRFTISRDNAKNTLYLQMDSLKPEDTAVYYCAADLQYGSSWPQRSSAEYDYWGQGTTVTVSS
- EC50 (read off the curve) [7]: ~0.5 nM

B15: DOM-16-39-CD-H (VHH)
sdAb-CD fusion: MDIQMTQSPTSLSASVGDRVTITCRASQWIGNLLDWYQQKPGEAPKLLIYYASFLQSGVPSRFSGGGFGTDFTLTISSLQPEDFATYYCQQANPAPLTFGQGTKVEIKRGGGGSGGGGSGGGGSVTGGMASKWDQKGMDIAYEEAALGYKEGGVPIGGCLINNKDGSVLGRGHNMRFQKGSATLHGEISTLENCGRLEGKVYKDTTLYTTLSPCDMCTGAIIMYGIPRCVVGENVNFKSKGEKYLQTRGHEVVVVDDERCKKIMKQFIDERPQDWFEDIGEGSSHHHHHH
- binding result [4]: binds
